# Measured values published in publication PMC3964903.
# Molecular target: calcium/calmodulin-dependent protein kinase II (CaMKII) (mouse (endogenous in hippocampal slices)) (UniProt P11798)
# UniProt P11798, sequence (P11798 whole entry): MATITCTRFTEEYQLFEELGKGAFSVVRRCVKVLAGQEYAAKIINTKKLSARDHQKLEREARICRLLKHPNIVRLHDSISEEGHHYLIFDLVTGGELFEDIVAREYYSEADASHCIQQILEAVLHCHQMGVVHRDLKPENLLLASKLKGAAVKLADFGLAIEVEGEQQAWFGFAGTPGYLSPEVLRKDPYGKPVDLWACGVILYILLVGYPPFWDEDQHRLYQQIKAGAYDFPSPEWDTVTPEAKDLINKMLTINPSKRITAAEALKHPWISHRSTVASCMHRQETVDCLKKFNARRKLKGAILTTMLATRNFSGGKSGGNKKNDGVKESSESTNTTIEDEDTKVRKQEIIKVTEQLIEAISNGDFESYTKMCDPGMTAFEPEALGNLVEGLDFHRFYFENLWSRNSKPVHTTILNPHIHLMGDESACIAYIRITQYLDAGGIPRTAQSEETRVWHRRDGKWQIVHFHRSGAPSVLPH
substance,measurement,value
NMDA receptor (NMDAR) (from UniProt P35438 19-938; Q01097 27-1482) (complex),"CaMKII relative activity (Cyclex CaMKII assay kit) after 10 min OGD with Tat-GluN2B, compared with control (relative to control)",0.97
same,"amplitude of NMDAR-mediated i-LTP (NMDA fEPSPs) in hippocampal slices exposed to OGD for 10 min with Tat-GluN2B, compared with OGD alone (relative to OGD)",0.73
